According to patent US20210388087A1 (Chugai, published 2021):
Residue numbers refer to the chain shown, from its start. Names may count otherwise.

B1: H183/L072 VH K64P (antibody, name in Kabat numbering, V domains shown)
VH: QVQLVESGGGLVQPGRSLRLSCAASGFTFSNAWMHWVRQAPGKGLEWVAQIKDKGNAYAAYYAPSVPGRFTISRDDSKNSIYLQMNSLKTEDTAVYYCHYVHYASASTVLPAFGVDAWGQGTTVTVSS
VL: DIVMTQSPLSLPVTPGEPASISCQASQELVHMNRNTYLHWYQQKPGQAPRLLIYKVSNRFPGVPDRFSGSGSGTDFTLKISRVEAEDVGVYYCAQGTSVPFTFGQGTKLEIK
B2: H183/L072 VH L100dA (antibody, name in Kabat numbering, V domains shown)
VH: B1 VH with P67K, L110A
VL: B1 VL
B3: H183/L072 VH L100dI (antibody, name in Kabat numbering, V domains shown)
VH: B1 VH with P67K, L110I
VL: B1 VL
B4: H183/L072 VH L100dM (antibody, name in Kabat numbering, V domains shown)
VH: B1 VH with P67K, L110M
VL: B1 VL
B5: H183/L072 VH M34F (antibody, name in Kabat numbering, V domains shown)
VH: B1 VH with M34F, P67K
VL: B1 VL
B6: H183/L072 VH M34H (antibody, name in Kabat numbering, V domains shown)
VH: B1 VH with M34H, P67K
VL: B1 VL
B7: H183/L072 VH M34I (antibody, name in Kabat numbering, V domains shown)
VH: B1 VH with M34I, P67K
VL: B1 VL
B8: H183/L072 VH M34L (antibody, name in Kabat numbering, V domains shown)
VH: B1 VH with M34L, P67K
VL: B1 VL
B9: H183/L072 VH M34P (antibody, name in Kabat numbering, V domains shown)
VH: B1 VH with M34P, P67K
VL: B1 VL
B10: H183/L072 VH M34V (antibody, name in Kabat numbering, V domains shown)
VH: B1 VH with M34V, P67K
VL: B1 VL
B11: H183/L072 VH M34Y (antibody, name in Kabat numbering, V domains shown)
VH: B1 VH with M34Y, P67K
VL: B1 VL
B12: H183/L072 VH N31A (antibody, name in Kabat numbering, V domains shown)
VH: B1 VH with N31A, P67K
VL: B1 VL
B13: H183/L072 VH N31F (antibody, name in Kabat numbering, V domains shown)
VH: B1 VH with N31F, P67K
VL: B1 VL
B14: H183/L072 VH N31G (antibody, name in Kabat numbering, V domains shown)
VH: B1 VH with N31G, P67K
VL: B1 VL
B15: H183/L072 VH N31H (antibody, name in Kabat numbering, V domains shown)
VH: B1 VH with N31H, P67K
VL: B1 VL
B16: H183/L072 VH N31I (antibody, name in Kabat numbering, V domains shown)
VH: B1 VH with N31I, P67K
VL: B1 VL
B17: H183/L072 VH N31L (antibody, name in Kabat numbering, V domains shown)
VH: B1 VH with N31L, P67K
VL: B1 VL
B18: H183/L072 VH N31P (antibody, name in Kabat numbering, V domains shown)
VH: B1 VH with N31P, P67K
VL: B1 VL

Target: T1, Human CD137 ECD (human)
T1 construct: also called 4-1BB
T1 sequence (chain, as listed by the source limits assumed): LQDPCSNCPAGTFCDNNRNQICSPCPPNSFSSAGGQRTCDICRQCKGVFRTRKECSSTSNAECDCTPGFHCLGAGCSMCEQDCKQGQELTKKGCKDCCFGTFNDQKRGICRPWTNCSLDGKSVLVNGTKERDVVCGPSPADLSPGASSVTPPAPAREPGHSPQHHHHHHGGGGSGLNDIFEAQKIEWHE
Test: single mutant vs template dBBDu183H

Binder	fold change of affinity [fold]
B1	0.7
B2	0.8
B3	0
B4	0.9
B5	2.5
B6	0.1
B7	1.4
B8	1.8
B9	0.3
B10	1
B11	0
B12	0.3
B13	0.2
B14	0.3
B15	0.4
B16	0.3
B17	0.3
B18	0.4
